Measured values as given in patent US11541107B2, “Peptides and T cells for use in immunotherapeutic treatment of various cancers” (Immatics Biotechnologies GmbH, priority 2015, dated 2023).

Legend:
[1] = molecular target: HLA-A*02 (Homo sapiens, UniProt P04439, D140Y/D185E/D98H/E176V/E277Q/G131W/G231S/I119V/I121R/I166T/I218V/L300P/N151K/N90K/P208A/P217A/Q86G/Q94H/R138H/R169H); assay: MHC binding assay, UV-ligand exchange with beta2m ELISA, HLA-A*02; details: binding to HLA-A*02 ranged by peptide exchange yield (UV-ligand exchange, beta2m ELISA)
Procedure, shortened: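 Peptide–MHC complexes made by UV-ligand exchange of a UV-cleavable peptide. Exchange yield measured by ELISA: monomers diluted 100-fold on streptavidin-coated plates, 1 h at 37°C, detected with HRP anti-β2m (2 ug/ml) and TMB, absorbance at 450 nm.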

[2] = test system: CD8+ T cells; assay: In vitro T-cell priming assay (aAPCs loaded with peptide/MHC and anti-CD28, pMHC multimer readout; HLA-A*02 and HLA-A*24); assay type: cell-based, human; details: in vitro immunogenicity of HLA class I peptides; peptide-specific T cells by pMHC multimer staining
From the text: In order to obtain information regarding the immunogenicity of the TUMAPs of the present invention, the inventors performed investigations using an in vitro T-cell priming assay based on repeated stimulations of CD8+ T cells with artificial antigen presenting cells (aAPCs) loaded with peptide/MHC complexes and anti-CD28 antibody.
In order to perform in vitro stimulations by artificial antigen presenting cells loaded with peptide-MHC complex (pMHC) and anti-CD28 antibody, the inventors first isolated CD8+ T cells from fresh HLA-A*02 leukapheresis products via positive selection using CD8 microbeads (Miltenyi Biotec, Bergisch-Gladbach, Germany) of healthy donors obtained from the University clinics Mannheim, Germany, after informed consent.
PBMCs and isolated CD8+ lymphocytes were incubated in T-cell medium (TCM) until use consisting of RPMI-Glutamax (Invitrogen, Karlsruhe, Germany) supplemented with 10% heat inactivated human AB serum (PAN-Biotech, Aidenbach, Germany), 100 U/ml Penicillin/100 μg/ml Streptomycin (Cambrex, Cologne, Germany), 1 mM sodium pyruvate (CC Pro, Oberdorla, Germany), 20 μg/ml Gentamycin (Cambrex). 2.5 ng/ml IL-7 (PromoCell, Heidelberg, Germany) and 10 U/ml IL-2 (Novartis Pharma, Nürnberg, Germany) were also added to the TCM at this step.
Generation of pMHC/anti-CD28 coated beads, T-cell stimulations and readout was performed in a highly defined in vitro system using four different pMHC molecules per stimulation condition and 8 different pMHC molecules per readout condition.
The purified co-stimulatory mouse IgG2a anti human CD28 Ab 9.3 (Jung et al., 1987) was chemically biotinylated using Sulfo-N-hydroxysuccinimidobiotin as recommended by the manufacturer (Perbio, Bonn, Germany). Beads used were 5.6 μm diameter streptavidin coated polystyrene particles (Bangs Laboratories, Illinois, USA).
pMHC used for positive and negative control stimulations were A*0201/MLA-001 (peptide […] (SEQ ID NO. 418) from modified Melan-A/MART-1) and A*0201/DDX5-001 ([…] from DDX5, SEQ ID NO. 419), respectively.
800.000 beads/200 μl were coated in 96-well plates in the presence of 4×12.5 ng different biotin-pMHC, washed and 600 ng biotin anti-CD28 were added subsequently in a volume of 200 μl. Stimulations were initiated in 96-well plates by co-incubating 1×10^6 CD8+ T cells with 2×10^5 washed coated beads in 200 μl TCM supplemented with 5 ng/ml IL-12 (PromoCell) for 3 days at 37° C. Half of the medium was then exchanged by fresh TCM supplemented with 80 U/ml IL-2 and incubating was continued for 4 days at 37° C. This stimulation cycle was performed for a total of three times. For the pMHC multimer readout using 8 different pMHC molecules per condition, a two-dimensional combinatorial coding approach was used as previously described (Andersen et al., 2012) with minor modifications encompassing coupling to 5 different fluorochromes. Finally, multimeric analyses were performed by staining the cells with Live/dead near IR dye (Invitrogen, Karlsruhe, Germany), CD8-FITC antibody clone SK1 (BD, Heidelberg, Germany) and fluorescent pMHC multimers. For analysis, a BD LSRII SORP cytometer equipped with appropriate lasers and filters was used. Peptide specific cells were calculated as percentage of total CD8+ cells. Evaluation of multimeric analysis was done using the FlowJo software (Tree Star, Oregon, USA). In vitro priming of specific multimer+CD8+ lymphocytes was detected by comparing to negative control stimulations.
Exemplary flow cytometry results after TUMAP-specific multimer staining for 2 peptides of the invention are shown in FIGS. 3A-3B together with corresponding negative controls. Results for 5 peptides from the invention are summarized in Table12A. Exemplary flow cytometry results after TUMAP-specific multimer staining for 7 peptides of the invention are shown in FIGS. 4A-4C and FIGS. 5A-5D together with corresponding negative controls.

Peptide exchange [1]	Substance	Wells positive [%] [2]
+++ (50%-75% = +++)	2 (ALYGKLLKL; listed as Homo sapiens) [compound 2]	++++ (>=70% = ++++)
+++ (50%-75% = +++)	7 (AAAAKVPEV; listed as Homo sapiens) [compound 7]	+ (<20% = +)
++ (20%-49% = ++)	9 (FLGDYVENL; listed as Homo sapiens) [compound 9]	+ (<20% = +)
+++ (50%-75% = +++)	17 (ILHEHHIFL; listed as Homo sapiens) [compound 17]	+ (<20% = +)
+++ (50%-75% = +++)	43 (LLWAGPVTA; listed as Homo sapiens) [compound 43]	++++ (>=70% = ++++)
+++ (50%-75% = +++)	322 (ALVSGGVAQA; listed as Homo sapiens) [compound 322]	+ (<20% = +)
